According to patent publication US5831007:
“And” between values parts separate entries of the source, which are not always exact repeats. Equal entries are not always repeated.

Columns and labels:
[1] = molecular target: Soluble complex of 125I-IL-12 crosslinked to human IL-12R (human) (UniProt P29460); experiment: immunoprecipitation of the solubilized 125I-IL-12/IL-12R complex by the immobilized antibody; control
[2] = molecular target: Natural human IL-12 receptor on IL-12R positive human cells (PHA-activated PBMC, K6, Kit-225, YT cells) (human)
[3] = molecular target: Natural human IL-12 receptor on IL-12R positive human cells (PHA-activated PBMC, K6, Kit-225, YT cells) (human); experiment: steady state 125I-IL-12 binding to K6 cells, Scatchard, first of 3 sites
[4] = molecular target: Natural human IL-12 receptor on IL-12R positive human cells (PHA-activated PBMC, K6, Kit-225, YT cells) (human); experiment: steady state 125I-IL-12 binding to K6 cells, Scatchard, third of 3 sites
[5] = molecular target: Natural human IL-12 receptor on IL-12R positive human cells (PHA-activated PBMC, K6, Kit-225, YT cells) (human); experiment: steady state 125I-IL-12 binding to YT cells, Scatchard, first of 2 sites
[6] = molecular target: Natural human IL-12 receptor on IL-12R positive human cells (PHA-activated PBMC, K6, Kit-225, YT cells) (human); experiment: steady state 125I-IL-12 binding to K6 cells, Scatchard, second of 3 sites
[7] = molecular target: Natural human IL-12 receptor on IL-12R positive human cells (PHA-activated PBMC, K6, Kit-225, YT cells) (human); experiment: steady state 125I-IL-12 binding to YT cells, Scatchard, second of 2 sites
[8] = molecular target: Natural human IL-12 receptor on IL-12R positive human cells (PHA-activated PBMC, K6, Kit-225, YT cells) (human); experiment: steady state 125I-IL-12 binding to Kit-225 cells, Scatchard, first of 3 sites
[9] = molecular target: Natural human IL-12 receptor on IL-12R positive human cells (PHA-activated PBMC, K6, Kit-225, YT cells) (human); experiment: steady state 125I-IL-12 binding to Kit-225 cells, Scatchard, third of 3 sites
[10] = molecular target: Natural human IL-12 receptor on IL-12R positive human cells (PHA-activated PBMC, K6, Kit-225, YT cells) (human); experiment: steady state 125I-IL-12 binding to Kit-225 cells, Scatchard, second of 3 sites
[11] = molecular target: Natural human IL-12 receptor on IL-12R positive human cells (PHA-activated PBMC, K6, Kit-225, YT cells) (human); experiment: steady state 125I-IL-12 binding to PHA-PBMC (5-7 days), Scatchard, first of 3 sites
[12] = molecular target: Natural human IL-12 receptor on IL-12R positive human cells (PHA-activated PBMC, K6, Kit-225, YT cells) (human); experiment: steady state 125I-IL-12 binding to PHA-PBMC (5-7 days), Scatchard, third of 3 sites
[13] = molecular target: Natural human IL-12 receptor on IL-12R positive human cells (PHA-activated PBMC, K6, Kit-225, YT cells) (human); experiment: steady state 125I-IL-12 binding to PHA-PBMC (5-7 days), Scatchard, second of 3 sites
[14] = molecular target: Natural human IL-12 receptor on IL-12R positive human cells (PHA-activated PBMC, K6, Kit-225, YT cells) (human); experiment: equilibrium binding of 125I-IL-12 to PHA-activated PBMCs, Kit-225 and K6 cells, Scatchard, first of 3 sites
[15] = molecular target: Natural human IL-12 receptor on IL-12R positive human cells (PHA-activated PBMC, K6, Kit-225, YT cells) (human); experiment: equilibrium binding of 125I-IL-12 to PHA-activated PBMCs, Kit-225 and K6 cells, Scatchard, third of 3 sites
[16] = molecular target: Natural human IL-12 receptor on IL-12R positive human cells (PHA-activated PBMC, K6, Kit-225, YT cells) (human); experiment: equilibrium binding of 125I-IL-12 to PHA-activated PBMCs, Kit-225 and K6 cells, Scatchard, second of 3 sites
[17] = molecular target: Detergent solubilized IL-12R from extracts of PHA-activated PBMC, Kit-225 or K6 cells (human); experiment: steady state binding of 125I-IL-12 to proteins immunoprecipitated by immobilized 2-4E6 from solubilized cell extracts, Scatchard (FIG. 14, K6 cells)

Sequence of Recombinant human IL-12 (Interleukin-12) (P29460 23-328): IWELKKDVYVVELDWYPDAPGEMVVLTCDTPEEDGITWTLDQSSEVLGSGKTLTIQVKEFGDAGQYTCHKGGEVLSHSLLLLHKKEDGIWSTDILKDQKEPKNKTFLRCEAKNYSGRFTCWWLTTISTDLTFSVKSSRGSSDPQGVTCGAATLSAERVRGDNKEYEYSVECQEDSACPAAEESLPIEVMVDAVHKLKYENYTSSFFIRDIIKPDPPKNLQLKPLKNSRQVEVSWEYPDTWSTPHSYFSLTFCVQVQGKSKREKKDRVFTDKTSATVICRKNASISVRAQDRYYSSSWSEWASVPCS
Sequence of Recombinant human IL-12 (Interleukin-12) (chain): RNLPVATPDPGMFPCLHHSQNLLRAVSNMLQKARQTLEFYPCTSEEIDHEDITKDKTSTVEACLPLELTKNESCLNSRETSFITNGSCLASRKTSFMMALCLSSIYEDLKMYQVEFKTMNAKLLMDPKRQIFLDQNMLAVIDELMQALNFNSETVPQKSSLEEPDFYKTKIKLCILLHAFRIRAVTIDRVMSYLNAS

| I.P. assay (cpm bound) [1] | 3H-TdR incorporation of PHA-activated PBMC [2] | Kd [3] | Kd [4] | Kd [5] | Kd [6] | Kd [7] | Kd [8] | Kd [9] | Kd [10] | Kd [11] | Kd [12] | Kd [13] | Kd [14] | Kd [15] | Kd [16] | Kd [17] | Substance |
| --- | --- | --- | --- | --- | --- | --- | --- | --- | --- | --- | --- | --- | --- | --- | --- | --- | --- |
| 402 cpm | – | – | – | – | – | – | – | – | – | – | – | – | – | – | – | – | Control mAb (Table 1) (antibody) |
| – | 38800 cpm | 16 pM | 2400 pM | 6 pM | 57 pM | 109 pM | 23 pM | 2360 pM | 210 pM | 18 pM | 1800 pM | 84 pM | 5 pM and 20 pM | 2000 pM and 6000 pM | 50 pM and 200 pM | 188 pM | Recombinant human IL-12 (Interleukin-12) (from UniProt P29460) (ligand) |
